These results are taken from patent publication JP2012161321A.

Experiment [1] deals with Muc1ムチン bearing the CA6 sialoglycotope (DS6 antigen), as expressed by CA6-positive human tumour cell lines (human) (UniProt P15941). The experiment can be described thus: cell-based or functional assay.
Experiment [2] has the same target. Kind of experiment: flow cytometry on Caov-3 cells, apparent Kd (Fig. 20). For orientation: In flow cytometry, cells or beads pass a laser one at a time.
Experiment [3] has the same target. The experiment can be described thus: flow cytometry, direct binding to KB cells, apparent Kd (Fig. 18).
Experiment [4] shares this target. The experiment can be described thus: flow cytometry competition; competitor 2 nM biotin-muDS6, streptavidin-DTAF (Fig. 19).

UniProt P15941, sequence (P15941 24-1255): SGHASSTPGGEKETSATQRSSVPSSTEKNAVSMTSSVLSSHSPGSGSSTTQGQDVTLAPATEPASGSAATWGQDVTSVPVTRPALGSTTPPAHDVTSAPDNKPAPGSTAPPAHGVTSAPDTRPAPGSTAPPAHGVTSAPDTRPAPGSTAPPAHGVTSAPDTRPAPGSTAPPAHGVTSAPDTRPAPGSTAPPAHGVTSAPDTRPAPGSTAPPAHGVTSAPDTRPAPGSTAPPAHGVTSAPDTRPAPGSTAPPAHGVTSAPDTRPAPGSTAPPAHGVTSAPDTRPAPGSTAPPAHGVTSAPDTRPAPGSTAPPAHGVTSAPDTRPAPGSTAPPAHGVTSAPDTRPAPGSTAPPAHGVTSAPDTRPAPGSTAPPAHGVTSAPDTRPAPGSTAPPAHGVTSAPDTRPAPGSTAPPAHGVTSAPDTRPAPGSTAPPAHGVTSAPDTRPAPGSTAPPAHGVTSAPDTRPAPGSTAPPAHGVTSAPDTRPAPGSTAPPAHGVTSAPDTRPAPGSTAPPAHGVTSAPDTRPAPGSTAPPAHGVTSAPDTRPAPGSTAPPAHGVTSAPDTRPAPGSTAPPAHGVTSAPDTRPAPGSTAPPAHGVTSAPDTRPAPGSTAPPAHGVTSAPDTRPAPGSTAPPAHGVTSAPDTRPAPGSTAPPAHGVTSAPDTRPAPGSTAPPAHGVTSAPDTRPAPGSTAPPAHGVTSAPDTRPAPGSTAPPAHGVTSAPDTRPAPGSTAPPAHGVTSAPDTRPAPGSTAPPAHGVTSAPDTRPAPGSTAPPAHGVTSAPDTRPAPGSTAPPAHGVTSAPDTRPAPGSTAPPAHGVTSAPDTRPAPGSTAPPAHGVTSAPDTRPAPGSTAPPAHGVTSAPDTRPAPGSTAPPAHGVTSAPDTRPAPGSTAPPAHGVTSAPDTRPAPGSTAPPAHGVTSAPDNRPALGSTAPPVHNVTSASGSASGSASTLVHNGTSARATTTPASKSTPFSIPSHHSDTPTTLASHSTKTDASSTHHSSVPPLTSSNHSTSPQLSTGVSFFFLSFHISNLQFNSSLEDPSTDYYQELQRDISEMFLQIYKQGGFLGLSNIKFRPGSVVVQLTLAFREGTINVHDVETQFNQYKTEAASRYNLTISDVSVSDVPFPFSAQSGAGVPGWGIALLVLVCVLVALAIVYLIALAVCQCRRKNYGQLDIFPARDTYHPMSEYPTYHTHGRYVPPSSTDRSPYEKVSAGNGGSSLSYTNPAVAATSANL

B1: muDS6−DM1細胞傷害性コンジュゲート (muDS6-SPP-DM1) (antibody, from another filing, V domains shown)
VH: QAYLQQSGAELVRSGASVKMSCKASGYTFTSYNMHWVKQTPGQGLEWIGYIYPGNGATNYNQKFKGKATLTADPSSSTAYMQISSLTSEDSAVYFCARGDSVPFAYWGQGTLVTVSA
VL: QIVLTQSPAIMSASPGEKVTITCSAHSSVSFMHWFQQKPGTSPKLWIYSTSSLASGVPARFGGSGSGTSYSLTISRMEAEDAATYYCQQRSSFPLTFGAGTKLELKR
On to B1, for which, in experiment [1], the IC50, colony formation assay on Caov-3 cells worked out at 0.8 nM. Also, the Kd in experiment [2] is 3.9 nM.

B2: huDS6v1.01−SPDB−DM4コンジュゲート (antibody, from another filing, human IgG1, V domains shown)
VH: QAQLVQSGAEVVKPGASVKMSCKASGYTFTSYNMHWVKQTPGQGLEWIGYIYPGNGATNYNQKFQGKATLTADTSSSTAYMQISSLTSEDSAVYFCARGDSVPFAYWGQGTLVTVSA
VL: EIVLTQSPATMSASPGERVTITCSAHSSVSFMHWFQQKPGTSPKLWIYSTSSLASGVPARFGGSGSGTSYSLTISSMEAEDAATYYCQQRSSFPLTFGAGTKLELKR
In experiment [1], B2 displayed an IC50, in vitro cytotoxicity (MTT) on WISH cells of 0.44 nM.

B3: DS6のキメラ型 (chimeric DS6, human constant regions and murine variable regions) (antibody, from another filing, V domains shown)
VH: QAYLQQSGAELVRSGASVKMSCKASGYTFTSYNMHWVKQTPGQGLEWIGYIYPGNGATNYNQKFKGKATLTADPSSSTAYMQISSLTSEDSAVYFCARGDSVPFAYWGQGTLVTVSA
VL: QIVLTQSPAIMSASPGEKVTITCSAHSSVSFMHWFQQKPGTSPKLWIYSTSSLASGVPARFGGSGSGTSYSLTISRMEAEDAATYYCQQRSSFPLTFGAGTKLELKR
As to B3, the Kd in experiment [3] amounted to 0.69 nM. Also, in experiment [4], the EC50 (in general, the concentration at which the effect is half-maximal) was determined as 1.7 nM.

B4: ヒト化DS6 1.01型 (humanized DS6 version 1.01) (antibody, from another filing, V domains shown)
VH: QAQLVQSGAEVVKPGASVKMSCKASGYTFTSYNMHWVKQTPGQGLEWIGYIYPGNGATNYNQKFQGKATLTADTSSSTAYMQISSLTSEDSAVYFCARGDSVPFAYWGQGTLVTVSA
VL: EIVLTQSPATMSASPGERVTITCSAHSSVSFMHWFQQKPGTSPKLWIYSTSSLASGVPARFGGSGSGTSYSLTISSMEAEDAATYYCQQRSSFPLTFGAGTKLELKR
In the case of B4, the Kd in experiment [3] amounted to 0.82 nM. Further, the concentration for a half-maximal effect (EC50) in experiment [4] was 3 nM.

B5: ヒト化DS6 1.21型 (humanized DS6 version 1.21) (antibody, from another filing, V domains shown)
VH: QAQLVQSGAEVVKPGASVKMSCKASGYTFTSYNMHWVKQTPGQGLEWIGYIYPGNGATNYNQKFQGKATLTADPSSSTAYMQISSLTSEDSAVYFCARGDSVPFAYWGQGTLVTVSA
VL: EIVLTQSPATMSASPGERVTITCSAHSSVSFMHWFQQKPGTSPKLWIYSTSSLASGVPARFGGSGSGTSYSLTISSMEAEDAATYYCQQRSSFPLTFGAGTKLELKR
Consider B5, for which the Kd in experiment [3] was found to be 0.85 nM. Moreover, the EC50 in experiment [4] stood at 1.9 nM.
